Measured values taken from patent US20230212319A1, “NOVEL ANTIGEN BINDING DOMAINS AND SYNTHETIC ANTIGEN RECEPTORS INCORPORATING THE SAME” (University of Southern California, priority 2020, published 2023).
Changes are numbered by the printed parent chain.

B1: 22068 (protein)
chain: MALPVTALLLPLALLLHAARPQLQLQESGPGLVKPSETLSLTCTVSGDSISSGDYYWGWIRQPPGKGLEWIGHIYYSGVTYYNPSLKSRVTISVDTSRNQFSLKLSSVTAADTAVYYCTREDSSNWRSRGQGTLVTVSSLEGGGGSGGGGSGGGGSVEDLKNVFPPEVAVFEPSKAEIAHTQKATLVCLATGFYPDHVELSWWVNGKEVHSGVCTDPQPLKEQPALNDSRYCLSSRLRVSATFWQNPRNHFRCQVQFYGLSENDEWTQDRAKPVTQIVSAEAWGRADCGITSASYHQGVLSATILYEILLGKATLYAVLVSALVLMAMVKRKDSRGRAKRSGSGATNFSLLKQAGDVEENPGPTSMDWIWRILFLVGAATGAHSFEVQLLESGGGLIQPGGSLRLSCAASGFTFSSHAMTWVRQAPGKGLEWVSAISGSGDYTHYADSVKGRFTISRDNSKNTVYLQMNSLRAEDSAVYYCAKDEDGGSLLGHRGQGTLVTVSSTRIQNPDPAVYQLRDSKSSDKSVCLFTDFDSQTNVSQSKDSDVYITDKCVLDMRSMDFKSNSAVAWSNKSDFACANAFNNSIIPEDTFFPSPESSCDVKLVEKSFETDTNLNFQNLSVIGFRILLLKVAGFNLLMTLRLWSSRAKRSGSGVKQTLNFDLLKLAGDVESNPGPSRGHMTEYKPTVRLATRDDVPRAVRTLAAAFADYPATRHTVDPDRHIERVTELQELFLTRVGLDIGKVWVADDGAAVAVWTTPESVEAGAVFAEIGPRMAELSGSRLAAQQQMEGLLAPHRPKEPAWFLATVGVSPDHQGKGLGSAVVLPGVEAAERAGVPAFLETSAPRNLPFYERLGFTVTADVEVPEGPRTWCMTRKPGA
B2: 22226 (protein)
chain: MALPVTALLLPLALLLHAARPACEVQLLESGGGLIQPGGSLRLSCAASGFTFSSHAMTWVRQAPGKGLEWVSAISGSGDYTHYADSVKGRFTISRDNSKNTVYLQMNSLRAEDSAVYYCAKDEDGGSLLGHRGQGTLVTVSSGTGPQGIFGQPGYINEFDIQMTQSPSSLSASVGDRVTITCKASDHINNWLAWYQQKPGQAPKLLIYGATTLETGVPSRFSGSGSGTDYTLTISSLQPEDFATYYCQQSWNTPWTFGQGTKLEIKRLEDLKNVFPPEVAVFEPSKAEIAHTQKATLVCLATGFYPDHVELSWWVNGKEVHSGVCTDPQPLKEQPALNDSRYCLSSRLRVSATFWQNPRNHFRCQVQFYGLSENDEWTQDRAKPVTQIVSAEAWGRADCGITSASYHQGVLSATILYEILLGKATLYAVLVSALVLMAMVKRKDSRGRAKRSGSGATNFSLLKQAGDVEENPGPTSATMDWIWRILFLVGAATGAHSGPEVQLVESGGGLVQAGGSLRLSCAASGRTFSMGWFRQAPGKEREFVAAITYSGGSPYYADSVKGRFTISRDNAKNTVYLQMNSLKPEDTAVYYCAANPTYGSDWNAENWGQGTQVTVSSGSGGGGSGGGGSGGGGSFEQVQLQQPGAELVKPGASVKMSCKASGYAFSSYWINWMKQKPGQGLEWIGQIYPGDGDTNYNGKFKGRATLTADTSSSTAYMQLSSLTSEDSAVYFCARSITTVVGCAMDYWGQGTSVTVSSTRIQNPDPAVYQLRDSKSSDKSVCLFTDFDSQTNVSQSKDSDVYITDKCVLDMRSMDFKSNSAVAWSNKSDFACANAFNNSIIPEDTFFPSPESSCDVKLVEKSFETDTNLNFQNLSVIGFRILLLKVAGFNLLMTLRLWSSRAKRSGSGVKQTLNFDLLKLAGDVESNPGPSRGHMTEYKPTVRLATRDDVPRAVRTLAAAFADYPATRHTVDPDRHIERVTELQELFLTRVGLDIGKVWVADDGAAVAVWTTPESVEAGAVFAEIGPRMAELSGSRLAAQQQMEGLLAPHRPKEPAWFLATVGVSPDHQGKGLGSAVVLPGVEAAERAGVPAFLETSAPRNLPFYERLGFTVTADVEVPEGPRTWCMTRKPGA
B3: 22114 (protein)
chain: MALPVTALLLPLALLLHAARPDIQMTQSPSSLSASVGDRVTITCKASDHINNWLAWYQQKPGQAPKLLIYGATTLETGVPSRFSGSGSGTDYTLTISSLQPEDFATYYCQQSWNTPWTFGQGTKLEIKRLEIQNPDPAVYQLRDSKSSDKSVCLFTDFDSQTNVSQSKDSDVYITDKCVLDMRSMDFKSNSAVAWSNKSDFACANAFNNSIIPEDTFFPSSDVPCDVKLVEKSFETDTNLNFQNLSVIGFRILLLKVAGFNLLMTLRLWSSRAKRSGSGVKQTLNFDLLKLAGDVESNPGPTSATMDWIWRILFLVGAATGAHSGPQVQLQESGGGLAQAGGSLRLSCAASGRTFSMGWFRQAPGKEREFVAAITYSGGSPYYASSVRGRFTISRDNAKNTVYLQMNSLKPEDTAVYYCAANPTYGSDWNAENWGQGTQVTVSSGSGGGGSGGGGSGGGGSFEQVQLQQPGAELVKPGASVKMSCKASGYAFSSYWINWMKQKPGQGLEWIGQIYPGDGDTNYNGKFKGRATLTADTSSSTAYMQLSSLTSEDSAVYFCARSITTVVGCAMDYWGQGTSVTVSSTREDLKNVFPPEVAVFEPSKAEIAHTQKATLVCLATGFYPDHVELSWWVNGKEVHSGVCTDPQPLKEQPALNDSRYCLSSRLRVSATFWQNPRNHFRCQVQFYGLSENDEWTQDRAKPVTQIVSAEAWGRADCGITSASYHQGVLSATILYEILLGKATLYAVLVSALVLMAMVKRKDSRGRAKRSGSGATNFSLLKQAGDVEENPGPSRGHMTEYKPTVRLATRDDVPRAVRTLAAAFADYPATRHTVDPDRHIERVTELQELFLTRVGLDIGKVWVADDGAAVAVWTTPESVEAGAVFAEIGPRMAELSGSRLAAQQQMEGLLAPHRPKEPAWFLATVGVSPDHQGKGLGSAVVLPGVEAAERAGVPAFLETSAPRNLPFYERLGFTVTADVEVPEGPRTWCMTRKPGA
B4: 22123 (protein)
chain: MALPVTALLLPLALLLHAARPACEVQLLESGGGLIQPGGSLRLSCAASGFTFSSHAMTWVRQAPGKGLEWVSAISGSGDYTHYADSVKGRFTISRDNSKNTVYLQMNSLRAEDSAVYYCAKDEDGGSLLGHRGQGTLVTVSSGTGGGGSGGGGSGGGGSEFDIQMTQSPSSLSASVGDRVTITCKASDHINNWLAWYQQKPGQAPKLLIYGATTLETGVPSRFSGSGSGTDYTLTISSLQPEDFATYYCQQSWNTPWTFGQGTKLEIKRLEDLKNVFPPEVAVFEPSKAEIAHTQKATLVCLATGFYPDHVELSWWVNGKEVHSGVCTDPQPLKEQPALNDSRYCLSSRLRVSATFWQNPRNHFRCQVQFYGLSENDEWTQDRAKPVTQIVSAEAWGRADCGITSASYHQGVLSATILYEILLGKATLYAVLVSALVLMAMVKRKDSRGRAKRSGSGATNFSLLKQAGDVEENPGPTSATMDWIWRILFLVGAATGAHSGPQVQLQESGGGLAQAGGSLRLSCAASGRTFSMGWFRQAPGKEREFVAAITYSGGSPYYASSVRGRFTISRDNAKNTVYLQMNSLKPEDTAVYYCAANPTYGSDWNAENWGQGTQVTVSSGSGGGGSGGGGSGGGGSFEQVQLQQPGAELVKPGASVKMSCKASGYAFSSYWINWMKQKPGQGLEWIGQIYPGDGDTNYNGKFKGRATLTADTSSSTAYMQLSSLTSEDSAVYFCARSITTVVGCAMDYWGQGTSVTVSSTRIQNPDPAVYQLRDSKSSDKSVCLFTDFDSQTNVSQSKDSDVYITDKCVLDMRSMDFKSNSAVAWSNKSDFACANAFNNSIIPEDTFFPSSDVPCDVKLVEKSFETDTNLNFQNLSVIGFRILLLKVAGFNLLMTLRLWSSRAKRSGSGVKQTLNFDLLKLAGDVESNPGPSRGHMTEYKPTVRLATRDDVPRAVRTLAAAFADYPATRHTVDPDRHIERVTELQELFLTRVGLDIGKVWVADDGAAVAVWTTPESVEAGAVFAEIGPRMAELSGSRLAAQQQMEGLLAPHRPKEPAWFLATVGVSPDHQGKGLGSAVVLPGVEAAERAGVPAFLETSAPRNLPFYERLGFTVTADVEVPEGPRTWCMTRKPGA
B5: 22132 (protein)
chain: B4 chain with Q502E, Q506V, A513V, S560D, R563K

The molecules below were run on RAJI cells (assay: JNG assay, co-culture with RAJI cells). Conditions: JNG cells expressing construct, co-culture with Raji.
Format: cell-based
In short: (§1)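 Read-out is NFAT-driven GFP measured by flow cytometry after ~4–18 h co-culture of SAR-expressing JNG cells with target cells (E:T about 1:2). SARs were introduced by lentiviral spinfection and selected with puromycin or blasticidin when possible; scores (+/- to 5+ ≈ 5–50% GFP+) are relative to parental JNG cells.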

Molecule | NFAT-GFP ASSAY: Raji
B1 | + (refer to approximately 5%, 10%, 20%, 30%, 40% and 50% GFP positive cells)
B2 | +/- (refer to approximately 5%, 10%, 20%, 30%, 40% and 50% GFP positive cells)

These molecules were tested on RAJI-CD19-KO cells (assay: JNG assay, co-culture with RAJI-CD19-KO cells). Conditions: co-culture with Raji-CD19-KO.
Format: cell-based
In short: as §1

Molecule | NFAT-GFP ASSAY: Raji-CD19-KO
B3 | 5+ (refer to approximately 5%, 10%, 20%, 30%, 40% and 50% GFP positive cells)

Each molecule was assayed on L363 cells (assay: JNG assay, co-culture with L363 cells). Conditions: co-culture with L363.
Format: cell-based
In short: as §1

Molecule | NFAT-GFP ASSAY: L363
B1 | + (refer to approximately 5%, 10%, 20%, 30%, 40% and 50% GFP positive cells)
B4 | 3+ (refer to approximately 5%, 10%, 20%, 30%, 40% and 50% GFP positive cells)
B5 | 4+ (refer to approximately 5%, 10%, 20%, 30%, 40% and 50% GFP positive cells)
B2 | + (refer to approximately 5%, 10%, 20%, 30%, 40% and 50% GFP positive cells)

These molecules were tested on Nalm6 cells (assay: JNG assay, co-culture with Nalm6 cells). Conditions: co-culture with Nalm6.
Format: cell-based
In short: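 Scoring uses % GFP+ reporter cells above the parental control, where +/-, +, 2+, 3+, 4+ and 5+ correspond to about 5, 10, 20, 30, 40 and 50%. Effectors were SAR-expressing Jurkat NFAT-GFP cells cocultured with targets (E:T ~1:2, ~4–18 h).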

Molecule | NFAT-GFP ASSAY: Nalm6
B1 | +/- (refer to approximately 5%, 10%, 20%, 30%, 40% and 50% GFP positive cells)
B4 | 5+ (refer to approximately 5%, 10%, 20%, 30%, 40% and 50% GFP positive cells)
B5 | 5+ (refer to approximately 5%, 10%, 20%, 30%, 40% and 50% GFP positive cells)
B2 | + (refer to approximately 5%, 10%, 20%, 30%, 40% and 50% GFP positive cells)

These molecules were tested on RS;411 (assay: JNG assay, co-culture with RS;411 cells). Conditions: co-culture with RS411.
Format: cell-based
In short: as §1

Molecule | NFAT-GFP ASSAY: RS411
B1 | +/- (refer to approximately 5%, 10%, 20%, 30%, 40% and 50% GFP positive cells)
B4 | 4+ (refer to approximately 5%, 10%, 20%, 30%, 40% and 50% GFP positive cells)
B5 | 4+ (refer to approximately 5%, 10%, 20%, 30%, 40% and 50% GFP positive cells)
B3 | 5+ (refer to approximately 5%, 10%, 20%, 30%, 40% and 50% GFP positive cells)
B2 | +/- (refer to approximately 5%, 10%, 20%, 30%, 40% and 50% GFP positive cells)
